These results are taken from article PMC5376981 (Scientific Reports, 2014).

Assay [1] concerns the target full-length VAR2CSA recombinant protein (3D7-DBL1X-6ε) (Plasmodium falciparum 3D7, UniProt Q8I639, strain). Nature of the assay: SPR. For orientation: In SPR one partner is held on a chip, and binding of the other changes the refractive index at the surface.
For assay [2], the target named is 3D7-DBL5ε (Plasmodium falciparum 3D7, UniProt Q8I639, strain). Nature of the assay: ELISA. On the technique in general: In an ELISA, binding on a coated surface is turned into a signal by an enzyme label.
For assay [3], the target named is FCR3-DBL6ε (Plasmodium falciparum FCR3, UniProt Q6UDW7, strain). Nature of the assay: ELISA.
The target of assay [4] is 3D7-DBL6ε (Plasmodium falciparum 3D7, UniProt Q8I639, strain). Nature of the assay: ELISA.
Assay [5] concerns the target FCR3-DBL3X-4ε (Plasmodium falciparum FCR3, UniProt Q6UDW7, strain). Nature of the assay: ELISA.
Assay [6] addresses native VAR2CSA on FCR3-CSA infected erythrocytes (Plasmodium falciparum FCR3, UniProt Q6UDW7, strain). Nature of the assay: flow cytometry on cells. Background: A flow cytometer gives signals particle by particle.
The target of assay [7] is native VAR2CSA on NF54-CSA infected erythrocytes (Plasmodium falciparum NF54 (parent of …, UniProt Q8I639, strain)). Nature of the assay: flow cytometry on cells.
For assay [8], the target named is 3D7-DBL2X (Plasmodium falciparum 3D7, UniProt Q8I639, strain). Nature of the assay: ELISA.
Assay [9] addresses 3D7-DBL1X (Plasmodium falciparum 3D7, UniProt Q8I639, strain). Nature of the assay: ELISA.
Assay [10] deals with 3D7-DBL1X-3X (Plasmodium falciparum 3D7, UniProt Q8I639, strain). Nature of the assay: ELISA.
Assay [11] concerns the target FCR3-DBL3X (Plasmodium falciparum FCR3, UniProt Q6UDW7, strain). Nature of the assay: ELISA.

B1: VHH861 (VHH)
VHH: QVQLQESGGGLVQAGGSLRLSCAFSGSIFKMGWYRQAPGKERELVATITHIGVTDYAEFVKGRFTISRDNAKNTVYLLMNSLKPEDTAVYYCNVASRWPDYWGQGTQVTVSS
Usually Kd stands for the free concentration of one partner at which half of the binding sites on the other are occupied at equilibrium, for simple one-to-one binding. What is called koff is the first-order rate constant of dissociation. Broadly, the kon is a measure of how fast the partners come together. Consider B1, for which the Kd in assay [1] turned out to be 35 nM. In addition, in assay [1], the koff was determined as 0.001 s⁻¹. Moreover, the kon in assay [1] came out at 29000 M⁻¹ s⁻¹. The binding result in assay [2] is “no binding (tested: 0.3 µg/ml)”; in assay [3], “no binding (tested: 0.3 µg/ml)”; in assay [4], “no binding (tested: 0.3 µg/ml)”; in [5], “binds”.

B2: VHH874 (VHH)
VHH: QVQLQESGGGLVQAGGSLRLSCAASGRAFSDYAMGWFRQAPGKERDFVAAISWNGGNTYYSDSVKGRFTISRDNAKNTVYLQMNSLKPEDTAVYYCAANDLAVPELLMPRVETYDYWGQGTQVTVSS
B2: the binding result is recorded as “binds” in [6]; “binds” in [7]; “no binding (tested: 0.3 µg/ml)” in assay [8]; “binds” in assay [9]; “binds” in assay [10]; “no binding (tested: 0.3 µg/ml)” in assay [11].
